According to patent US20230129812A1, “COMPOSITIONS AND METHODS FOR TREATING PULMONARY HYPERTENSION” (Acceleron Pharma Inc., priority 2020, published 2023):

Key:
[1] = target: T1, GDF11 (Homo sapiens, UniProt O95390); assay: Biacore ligand binding profile, ALK4-Fc:ActRIIB-Fc heterodimer vs homodimers, anti-Fc capture (Example 13, Table 13)
T1 sequence (O95390 299-407): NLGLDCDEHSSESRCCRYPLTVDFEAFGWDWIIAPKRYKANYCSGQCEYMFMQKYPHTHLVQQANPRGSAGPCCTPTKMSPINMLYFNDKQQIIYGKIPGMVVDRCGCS

[2] = target: T2, BMP10 (Homo sapiens, UniProt O95393); assay: as above
T2 sequence (O95393 317-424): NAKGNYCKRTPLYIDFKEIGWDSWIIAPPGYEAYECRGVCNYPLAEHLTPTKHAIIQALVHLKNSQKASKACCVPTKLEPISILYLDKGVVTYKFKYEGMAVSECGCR

[3] = test system: rat model of pulmonary arterial hypertension (PAH), monocrotaline-induced; assay: Monocrotaline (MCT) rat model of pulmonary arterial hypertension; type: in vivo, Sprague Dawley rats; details: MCT rats, compared to monocrotaline treated rats (vehicle)
Description: The effects of an ActRIIA-mFc fusion protein (ActRIIA-mFc homodimer as described in Example 1), an ALK4-Fc-ActRIIB-Fc heterodimer (as described in Examples 12 and 13), and sildenafil (a phosphodiesterase-5 inhibitor approved for the treatment of PAH) were examined in a rat model of pulmonary arterial hypertension (PAH). In this model, Sprague Dawley rats received a […] injection of monocrotaline (MCT) to induce PAH 24 hours prior to start of therapy.
Rats were separated into different treatment groups (10 mice per group): 1) treatment with MCT (60 mg/kg administered i.p. as a single dose at day 1 of study) and Tris buffered saline (i.p. as 1 ml/kg, every three days) (vehicle treatment group), 2) treatment with an ActRIIA-mFc polypeptide (10 mg/kg administered i.p. every three days) and MCT (60 mg/kg administered i.p. as a single dose at day 1 of study), 3) treatment with an ALK4-Fc:ActRIIB-Fc heterodimer (10 mg/kg administered i.p. every three days) and MCT (60 mg/kg administered i.p. as a single dose at day 1 of study), 4) treatment with sildenafil (30 mg/kg administered orally twice daily) and MCT (60 mg/kg administered i.p. as a single dose at day 1 of study), and 5) control rats (Tris buffered saline administered i.p. as 1 ml/kg, every three days). Rats were treated for 28 days. Body weights were recorded prior to first dose on Day 1 and then weekly throughout the study.
On day 28, rats were anesthetized by an intraperitoneal injection of ketamine/xylazine (80/10 mg/kg). An incision was made in the neck, and a jugular vein was isolated and ligated anteriorly. A fluid-filled pressure catheter was introduced into the right jugular vein to measure pulmonary artery pressure (PAP). Another incision was made in the inguinal region, and femoral artery was isolated and ligated anteriorly. […] Mean arterial pressure and right PAP were monitored using the Notocord HEM (Croissy sur Seine, Frnace) v3.5 data capture system for approximately 5-10 minutes until stable measurements were obtained. During the measurements, rats were maintained at approximately 37° C. on a heating pad and body temperature was monitored throughout the procedure with a rectal temperature probe. […] Hypertrophy was assessed, in part, by calculating RV/LV+S. The lungs were also weighed.
Similar trends were observed on vessel muscularity based on histopathologic scoring. […] Pulmonary arterioles from vehicle treated rats were determined to be 62.3% completely muscularized, 36.4% partially muscularized, and 1.4% non-muscularized. […] Histopathological scoring of smooth muscle hypertrophy of pulmonary arterioles were also recorded as follows: 0 (normal), 1 (minimal), 2 (mild), 3 (moderate), or 4 (marked).

[4] = target: T1, GDF11; assay: A-204 reporter gene assay, pGL3(CAGA)12 luciferase; type: cell-based; details: A-204 reporter gene assay
In short: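 Human rhabdomyosarcoma A-204 cells transfected with SMAD-responsive pGL3(CAGA)12 luciferase reporter (optionally with pRLCMV). Ligand in medium + 0.1% BSA, preincubated ~1 h with Fc-fusion inhibitor before addition to cells; after ~6 h cells lysed and luciferase activity measured.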

B1: ALK4-Fc:ActRIIB-Fc heterodimer: heteromeric complex of extracellular domains of human ActRIIB and human ALK4, each separately fused to an Fc domain with a linker (protein)
chain 1: GRGEAETRECIYYNANWELERTNQSGLERCEGEQDKRLHCYASWRNSSGTIELVKKGCWLDDFNCYDRQECVATEENPQVYFCCCEGNFCNERFTHLPEAGGPEVTYEPPPTAPTGGGTHTCPPCPAPELLGGPSVFLFPPKPKDTLMISRTPEVTCVVVDVSHEDPEVKFNWYVDGVEVHNAKTKPREEQYNSTYRVVSVLTVLHQDWLNGKEYKCKVSNKALPAPIEKTISKAKGQPREPQVYTLPPSRKEMTKNQVSLTCLVKGFYPSDIAVEWESNGQPENNYKTTPPVLKSDGSFFLYSKLTVDKSRWQQGNVFSCSVMHEALHNHYTQKSLSLSPGK
chain 2: SGPRGVQALLCACTSCLQANYTCETDGACMVSIFNLDGMEHHVRTCIPKVELVPAGKPFYCLSSEDLRNTHCCYTDYCNRIDLRVPSGHLKEPEHPSMWGPVETGGGTHTCPPCPAPELLGGPSVFLFPPKPKDTLMISRTPEVTCVVVDVSHEDPEVKFNWYVDGVEVHNAKTKPREEQYNSTYRVVSVLTVLHQDWLNGKEYKCKVSNKALPAPIEKTISKAKGQPREPQVYTLPPSREEMTKNQVSLTCLVKGFYPSDIAVEWESNGQPENNYDTTPPVLDSDGSFFLYSDLTVDKSRWQQGNVFSCSVMHEALHNHYTQKSLSLSPG
- GDF11 binding ([1]; Example 13): strong binding
- ka ([1]; ligand GDF11, Table 13): 3.8e+07 M⁻¹ s⁻¹
- kd ([1]; ligand GDF11, Table 13): 0.00011 s⁻¹
- BMP10 binding ([2]; Example 13): substantially reduced binding
- ka ([2]; ligand BMP10, Table 13): 5.6e+07 M⁻¹ s⁻¹
- kd ([2]; ligand BMP10, Table 13): 0.0041 s⁻¹
- improvement in body weight ([3]; 28 days): +5.1%
- decrease of right heart hypertrophy ([3]; day 28, RV/LV+S): 39.6%
- decrease of lung weight ([3]; day 28): 19.0%
- reduction of elevated PAP ([3]; day 28): 44.6%
- inhibition of GDF11 signaling [4]: potent inhibitors
